Ends that are not written are not given here.
Experiments:
Type in all cases: cell-based
[1] = target: T1, S. Typhimurium PhoPQ (Salmonella typhimurium, UniProt P0DM80); test: SLAY-TCS sort-seq screen of KB1 human AMP library; settings: for sort-seq fold activation of PhoPQ relative to no-peptide control: KB1 library, 500 μM IPTG
T1 construct: expressed in transfected cells; host or cells: E. coli BW30007 (lacks E. coli phoPQ) with the cassette integrated in the genome = strain KB1
Description: PhoQ senses diverse human AMPs: To characterize the response of PhoQ to most human AMPs, 133 human AMPs in the Antimicrobial Peptide Database (APD3) were first identified). From this set, 16 (12%) were excluded exceeding 104 amino acids in length due to size restrictions of commercial oligonucleotide synthesis. The remaining set of 117 AMPs vary in charge, length, hydrophobicity, and secondary structure, and comprise 11 clusters of high sequence similarity. These clusters include families of mature AMPs processed from a single precursor peptide (e.g. products of cathelicidin, human defensin 5, and β-amyloid) and peptides with high sequence similarity that are produced from distinct genes (e.g. CXCL1, CXCL2, and CXCL3).
This plasmid library was transformed into KB1. Using Illumina NGS, it was validated that sequences encoding all 117 human AMPs, along with no-peptide controls, are present in the KB1 human AMP library. Variants of human AMPs were also identified that likely resulted from errors in oligo synthesis or plasmid assembly. As expected, these variants generally had lower representation in the library than the human AMPs.
Next, sort-seq was utilized to characterize the effect of each peptide on PhoPQ activity. First, the KB1 human AMP library was grown in the presence of 500 μM IPTG, which induces sufficient expression of positive control AMPs to strongly activate PhoPQ (FIG. 25D). Then, FACS was used to sort these bacteria into eight logarithmically-spaced mNG fluorescence bins (FIG. 26B). The bins were designed to span the fluorescence distributions of negative (no peptide) and positive (C18G) PhoQ activity control strains measured on the same day. […] Next, Illumina NGS was used to sequence the peptide-encoding DNA regions from bacteria in each bin and estimated the mean mNG fluorescence level of each strain using the relative abundances of peptide-encoding sequences across fluorescence bins. These estimated fluorescence values were divided by the estimated mean fluorescence of the no-peptide control to calculate the fold activation of PhoPQ in response to each peptide in the library.

[2] = target: T1, S. Typhimurium PhoPQ; test: SLAY-TCS: surface-displayed peptides in KB1, single strains, flow cytometry; settings: KB1, IPTG-induced display
Description: In SLAY, peptides of interest are expressed at the C-terminus of a fusion protein consisting of the Lpp signal peptide, an OmpA transmembrane domain, and a flexible tether. […] In addition to PvirK-mNG, each of these plasmids encodes a SLAY fusion protein under the control of an isopropyl-β-D-thiogalactoside (IPTG)-inducible promoter (Ptac) (FIG. 25). Ptac is tightly repressed, to avoid potential toxicity arising from leaky AMP expression in the absence of inducer. […] Finally, a no-peptide control plasmid encoding a stop codon was constructed instead of a peptide following the OmpA transmembrane domain.

[3] = target: T2, KB1 PhoQ H277A (Salmonella typhimurium, UniProt P0DM80, H277A); test: Negative control strains (S. Typhimurium lacking phoQ; KB1 PhoQ H277A)
T2 construct: expressed in transfected cells; host or cells: E. coli KB1 derivative (BW30007 background)
T2 sequence (P0DM80 1-487 H277A): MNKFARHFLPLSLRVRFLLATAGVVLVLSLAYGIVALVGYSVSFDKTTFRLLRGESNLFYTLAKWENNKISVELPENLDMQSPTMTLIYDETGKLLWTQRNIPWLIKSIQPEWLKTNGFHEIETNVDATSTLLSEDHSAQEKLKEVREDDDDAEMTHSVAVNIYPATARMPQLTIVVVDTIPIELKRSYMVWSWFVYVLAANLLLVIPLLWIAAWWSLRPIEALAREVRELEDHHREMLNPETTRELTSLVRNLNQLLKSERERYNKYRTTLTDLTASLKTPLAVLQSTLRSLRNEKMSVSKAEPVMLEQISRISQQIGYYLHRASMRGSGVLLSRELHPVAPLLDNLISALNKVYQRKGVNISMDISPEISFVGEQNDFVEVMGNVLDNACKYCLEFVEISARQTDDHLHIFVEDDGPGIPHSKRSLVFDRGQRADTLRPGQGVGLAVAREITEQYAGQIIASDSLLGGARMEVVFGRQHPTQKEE
Description: This plasmid was transformed into both S. Typhimurium and KB1 to measure PhoPQ activation by the positive control AMP LL-37. […] LL-37 response was also measured in two negative control strains: an S. Typhimurium strain lacking phoQ and a KB1 derivative in which the catalytic histidine of PhoQ was mutated to an alanine (KB1 PhoQ H277A).

T1 sequence (P0DM80 whole entry): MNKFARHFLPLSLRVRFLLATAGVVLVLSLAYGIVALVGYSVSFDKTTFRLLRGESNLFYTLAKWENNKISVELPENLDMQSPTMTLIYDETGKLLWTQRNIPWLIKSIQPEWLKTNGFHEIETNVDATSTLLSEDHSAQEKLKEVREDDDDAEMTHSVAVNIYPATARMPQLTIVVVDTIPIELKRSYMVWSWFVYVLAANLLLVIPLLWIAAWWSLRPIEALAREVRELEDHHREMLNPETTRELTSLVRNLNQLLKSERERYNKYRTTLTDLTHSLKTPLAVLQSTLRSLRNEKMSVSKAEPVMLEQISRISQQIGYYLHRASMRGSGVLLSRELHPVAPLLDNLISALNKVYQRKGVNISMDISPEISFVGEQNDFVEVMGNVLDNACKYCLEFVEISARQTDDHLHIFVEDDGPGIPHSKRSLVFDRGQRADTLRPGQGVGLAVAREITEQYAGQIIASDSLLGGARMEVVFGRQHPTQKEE

Substance	human AMPs sensed by PhoPQ [1]	PhoPQ activation by surface-displayed peptide [2]	sort-seq fold activation of PhoPQ relative to no-peptide control [1]	other results
CCL20	senses			
HNP-1: human defensin, negative control peptide		do not activate PhoPQ	does not activate mNG expression	
LL-37			5.2 fold	LL-37 response in negative control strains ([3]; S. Typhimurium lacking phoQ and KB1 PhoQ H277A): Neither negative control strain responds
NPY: neuropeptide Y	senses			
hBD3: human β-defensin 3 (GIINTLQKYYCRVRGGRCAVLSCLPKEEQIGKCSTRGRKCCRRKK; ends and bridges not checked; cysteine pairing not given here; UniProt P81534 23-67, looked up)	senses			
protegrin-1: positive control AMP containing disulfide bonds (RGGRLCYCRRRFCVCVGR; disulfide (positions not given here); ends not checked; also: disulfide bonds, pairing not given here; UniProt P32194 131-148, looked up)		activates PhoPQ		PhoPQ activation by surface-displayed AMPs in PhoQ H277A strain ([3]; KB1 PhoQ H277A): slight increase in mNG fluorescence
